Assay [1] concerns the target recombinant bank vole (BV) PrP(90–231), I109 natural polymorph (bank vole) (UniProt Q8VHV5). The assay is described as follows: SEC. For orientation: SEC sorts molecules by how far they enter the pores of the column.
Assay [2] has the same target. The assay is described as follows: NMR diffusion.

Data on 1 substance can be found in doi:10.1101/2025.10.11.681810.

One may read the stoichiometry N as a count of units in the complex or per binding partner.

Consider “recombinant bank vole (BV) PrP(90–231), I109 natural polymorph (from UniProt Q8VHV5 90-231) (domain or fragment)”, for which the stoichiometry N in assay [1] was determined as 12; in assay [2], 16.
